Data published in US20100092461A1, “Remedy For Chemotherapy-Resistant Cancer Containing HLA Class I-Recognizing Antibody as the Active Ingredient and Use of the Same” (CHUGAI SEIYAKU KABUSHIKI KAISHA, priority 2007, published 2010).

How the values were obtained:
[1] = tested on: vincristine-resistant cell lines; assay: Daunorubicin uptake into cells (accumulation and efflux phase, flow cytometry), vincristine-resistant cell lines; format: cell-based; settings: FIG. 8
Description: (§1) To elucidate the mechanism of overcoming drug (chemotherapeutic agent)-resistance using C3B3-DB, MDR1 expression on the cell surface was examined after treating these cells for six hours with C3B3-DB (0.1 μg/mL). […] Furthermore, treatment of these cells with C3B3-DB was followed by culturing these cells in the presence of daunorubicin (0.1 μg/mL, Meiji Seika, Tokyo) and the amount of daunorubicin uptake into cells were compared.
(§2) Specifically, uptake of the pharmaceutical agent into the cells (accumulation phase) was evaluated by culturing the cells for two hours in the presence or absence of C3B3-DB, then adding daunorubicin and culturing the cells for 30 minutes, washing the cells, and then measuring the PE intensity by flow cytometry. The cells were cultured for another 30 minutes to evaluate persistence of the pharmaceutical agent in the cells (efflux phase) in a same manner using flow cytometry.

parent cell lines = assay: Daunorubicin uptake into cells (accumulation and efflux phase, flow cytometry), parent cell lines; format: cell-based; settings: FIG. 8
Description: as §1, §2

BLTH = assay: Cytotoxic activity, cell growth test using WST-8, BLTH; format: cell-based; settings: FIG. 6
Description: (§3) Acute myeloid leukemia cell line HL60 (American Type Culture Collection, Manassas, Va., USA) and Burkitt's lymphoma cell line BLTH (kindly gifted from Prof Hirose at The University of Tokushima, Br. J. Cancer (1987) 56: 413-417) were cultured in the presence of vincristine to obtain vincristine-resistant cell lines HL60-R and BLTH-R.
(§4) First, these tumor cells were used to examine their susceptibility to C3B3-DB. These tumor cells were cultured in the presence of various concentrations of C3B3-DB and then antitumor activity (cytotoxic activity) of C3B3-DB was measured by cell growth tests using WST-8 (Kishida Chemicals, Osaka).
(§5) In addition, whether or not drug resistance in chemotherapeutic agent-resistant tumor cells can be overcome (improved) was examined by culturing these cells in the presence or absence of C3B3-DB (0.1 μg/mL) for six hours and then adding vincristine.

HL60 = assay: Cytotoxic activity, cell growth test using WST-8, HL60; format: cell-based; settings: FIG. 6
Description: as §3, §4, §5

HL60-R = assay: Cytotoxic activity, cell growth test using WST-8, HL60-R; format: cell-based
Description: as §3, §4, §5

[2] = used alone, compared with 2D7 diabody used alone, Patent Document 5; cited from earlier work
BLTH-R = assay: Cytotoxic activity, cell growth test using WST-8, BLTH-R; format: cell-based
Description: as §3, §4, §5

activated lymphocytes = settings: cited from earlier work
[3] = tested on: multiple myeloma model mice generated by transplanting human myeloma cell line; settings: cited from earlier work
human myeloma cells = settings: various human myeloma cell lines; cited from earlier work
MDR1 = MDR1 expression on the cell surface after C3B3-DB treatment (flow cytometry); format: cell-based; settings: six hours with C3B3-DB 0.1 μg/mL, chemotherapeutic agent-resistant cell lines, FIG. 7
Description: MDR1 expression on the cell surface was examined by flow cytometry using anti-MDR1 antibody (UIC-2, Chemicon, Temecula, Calif., USA) and FITC-labeled goat anti-mouse IgG antibody (Biosource, Camarillo, Calif., USA). Mouse IgG (BD Biosciences, San Jose, Calif., USA) was used for the control antibody.
as §1

[4] = C3B3-DB two hours then daunorubicin

## COc1cccc2c1C(=O)c1c(O)c3c(c(O)c1C2=O)C[C@@](O)(C(C)=O)C[C@@H]3O[C@H]1C[C@H](N)[C@H](O)[C@H](C)O1 [daunorubicin, reference compound]
[1]; daunorubicin 0.1 μg/mL, both phases
  amount of daunorubicin uptake into cells: significantly decreased
Parent cell lines; daunorubicin 0.1 μg/mL, accumulation and efflux phase
  amount of daunorubicin uptake into cells: a certain amount of daunorubicin was taken up

## CC[C@]1(O)C[C@H]2CN(CCc3c([nH]c4ccccc34)[C@@](C(=O)OC)(c3cc4c(cc3OC)N(C=O)[C@H]3[C@@](O)(C(=O)OC)[C@H](OC(C)=O)[C@]5(CC)C=CCN6CC[C@]43[C@@H]65)C2)C1 [vincristine, reference compound]
BLTH; with or without C3B3-DB pre-treatment
  cell injury by vincristine: concentration-dependent cell injury
HL60; HL60, with or without C3B3-DB pre-treatment
  cell injury by vincristine: concentration-dependent cell injury

B1: C3B3-DB: C3B3 diabody, a low-molecular-weight antibody of the C3B3 antibody recognizing HLA class I (protein)
scFv: EVKLVESEGGLVQPGSSMKLSCTASGFTFSDHYMAWVRQVPEKGLEWVADINYDGSRTYYLDSLKSRFIISRDNGKNILYLQMSSLKSEDTATYYCARDRVRSSYYSNLFAMDYWGQGISVTVSSGGGGSDIQMTQTTSSLSASLGDRVTISCRASQDIANYLNWYQQKPDGTVKLLIYYTSRLHSGVPSRFSGSGSGTDYSLTISNLEPEDIATYYCQQYSKLPYTFGSGTKLEIK
modifications: left off: small tags and cut ends
HL60-R; C3B3-DB alone, 24 hours, HL60-R compared with parent HL60, FIG. 5
  cytotoxic activity (survival rate of the cells): cell injury was induced at lower concentrations
HL60-R; HL60-R, C3B3-DB 0.1 μg/mL for six hours then vincristine, FIG. 6
  cytotoxic activity enhancement of vincristine due to pre-treatment: enhanced
[2]
  antitumor effects: stronger antitumor effects than 2D7 diabody
BLTH; C3B3-DB 0.1 μg/mL for six hours then vincristine
  cytotoxic activity enhancement of vincristine due to pre-treatment: not observed
[1]; [4]
  pre-treatment effect on amount of daunorubicin uptake: increased the amount of uptake
BLTH-R; BLTH-R, C3B3-DB 0.1 μg/mL for six hours then vincristine, FIG. 6
  cytotoxic activity enhancement of vincristine due to pre-treatment: enhanced
BLTH-R; C3B3-DB alone, 24 hours, BLTH-R compared with parent BLTH, FIG. 5
  cytotoxic activity (survival rate of the cells): cell injury was induced at lower concentrations
Parent cell lines; [4]
  pre-treatment effect on amount of daunorubicin uptake: not observed
Activated lymphocytes
  cell death-inducing activity: strong cell death-inducing activity
[3]
  survival benefit: significant survival benefit
Human myeloma cells
  cell death-inducing activity: strong cell death-inducing activity
MDR1
  MDR1 expression on the cell surface: decrease in some cells
HL60; HL60, C3B3-DB 0.1 μg/mL for six hours then vincristine
  cytotoxic activity enhancement of vincristine due to pre-treatment: not observed
